For assay [1], the target named is CS receptor on primary mouse hepatocytes (mouse).
Assay [2] shares this target. The source holds these as a separate data set.
Substrate in assay [3]: CS receptor on primary mouse hepatocytes (mouse)
This is another data set of the same source.

Turning to “BSA/poly(L-lysine) conjugate (from UniProt P02769)”, the transfection efficiency of primary hepatocytes (X-gal staining) (% transfection efficiency) in assay [1] is under 10.
“DHFR-CSF1-His6/poly(L-lysine) conjugate (from UniProt P00375)” registered a Blue cells (%) after transfection of primary hepatocytes with conjugate/pCMV-β-gal DNA complex (X-gal staining) in assay [2] of under 1 % blue cells.
On to poly(L-lysine), for which the transfection efficiency of primary hepatocytes (X-gal staining) (% transfection efficiency) in assay [1] is under 5.
For the molecule EWSPCSVTCGNGIQVRIKPGSAN [Peptide E35], the inhibition of β-galactosidase activity (ONPG) in CS27IVC-His6 conjugate-mediated gene transfer into primary hepatocytes (% inhibited at 0.125 µM) in assay [3] worked out at 50.

(Values after US5766899.)
